These results are taken from US20240409658A1 (Seagen, published 2024).

By EC50 is commonly meant the concentration giving half of the maximal effect. A high value points to a less potent agent.

Where two headings read alike, the source gives them in different places.

Test [1] concerns the target T1, human CD228 on the cell surface (RPMI-7951 cells stably expressing human CD228; A375 cells) (human, UniProt P08582 20-709).
T1 construct: whole, on cells; also called p97; melanotransferrin
T1 sequence (looked up): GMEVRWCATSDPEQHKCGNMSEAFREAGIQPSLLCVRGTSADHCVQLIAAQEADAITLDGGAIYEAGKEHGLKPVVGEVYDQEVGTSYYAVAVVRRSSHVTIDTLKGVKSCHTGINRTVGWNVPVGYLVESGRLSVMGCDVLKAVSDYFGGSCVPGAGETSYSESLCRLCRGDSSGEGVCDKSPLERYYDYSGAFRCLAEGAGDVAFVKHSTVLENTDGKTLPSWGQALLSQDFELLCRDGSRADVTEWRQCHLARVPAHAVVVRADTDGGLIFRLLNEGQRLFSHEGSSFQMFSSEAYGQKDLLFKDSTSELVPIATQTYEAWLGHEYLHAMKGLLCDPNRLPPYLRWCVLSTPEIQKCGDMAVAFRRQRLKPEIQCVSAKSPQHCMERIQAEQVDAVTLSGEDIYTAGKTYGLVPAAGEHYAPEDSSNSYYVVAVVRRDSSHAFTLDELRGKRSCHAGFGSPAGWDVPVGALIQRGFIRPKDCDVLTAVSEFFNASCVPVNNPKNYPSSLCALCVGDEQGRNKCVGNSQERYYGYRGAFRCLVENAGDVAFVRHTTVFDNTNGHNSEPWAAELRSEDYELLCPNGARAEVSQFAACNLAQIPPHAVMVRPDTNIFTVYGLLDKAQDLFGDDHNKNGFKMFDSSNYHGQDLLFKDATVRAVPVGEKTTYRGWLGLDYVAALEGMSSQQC
The test can be described thus: competition flow cytometry, RPMI-7951 cells stably expressing human CD228; competitor 5 nM AF647-labeled mL49; unlabeled antibody 0.06-1000 nM. The protocol: (§1) Binding curves for each resulting antibody was determined by a competition binding assay. Briefly, 1×10⁵ RPMI-7951 cells stably expressing human CD228 were aliquoted per well of a 96-well v-bottom plates on ice. […] Cells were pelleted and washed 3 times with PBS/BSA. The cells were pelleted and resuspended in 125 μL of PBS/BSA. Fluorescence was analyzed by flow cytometry, using percent of saturated fluorescent signal to determine percent labeled murine CD228 mAb bound.
(A flow cytometer gives signals particle by particle.)

Test [2] has as its target T1, human CD228 on the cell surface …. Described as above. The protocol: as §1
The source holds these as a separate data set.

Test [3] has the same target. The test is described as above. As to the method: as §1
The source holds these as a separate data set.

Test [4] shares this target. The description is as above. The protocol: as §1
The source holds these as a separate data set.

For test [5] the target is unchanged. The test is described as above. The protocol:
as §1
This is another data set of the same source.

For test [6] the target is unchanged. The description is as above. The protocol:
as §1
This is another data set of the same source.

The target of test [7] is T2, human CD228 (R&D Systems Custom02; Lot DCWR021505A) (human, UniProt P08582 20-709, limits assumed).
T2 sequence (looked up): T1 sequence (looked up)
The test can be described thus: ELISA on plate-coated human CD228, pH 5.6. The protocol:
(§2) The ability of various anti-CD228 ADCs to bind to CD228 was evaluated at pH values ranging from 4 to 7.5 using a standard ELISA protocol. Briefly, 100 ng of human CD228 (R&D Systems Custom02; Lot DCWR021505A) or BSA (Sigma; Catalog No. A7030-100G) were diluted in PBS and added to each well overnight at 4° C. Plates were then washed three times with PBS-T (EMD Millipore; Catalog No. 5246531EA). After washing, plates were blocked with 3% (w/v) BSA in PBS-T for 1 hour at room temperature. Excess blocking buffer was then removed and the primary antibody was added in 3-fold dilutions in diluent buffer (0.15M citrate-phosphate buffer pH 4.0-7.5) starting at an antibody concentration of 60 nM. After incubating for 1 hour at room temperature, the plates were washed 3 times and then incubated with secondary antibody (Goat anti-human IgG Fc-specific HRP-conjugated, Jackson ImmunoResearch code #109-035-098) in PBS-T with 1% BSA. After incubating for 30 minutes at room temperature, plates were washed 3 times. 100 μl TMB substrate (Life Technologies; Cat #002023) was then added to each well. After incubating 10 minutes at room temperature, 100 μl H2SO4 was added to each well to stop the reaction, plates were covered with clear plate seal and read on an Envision at […]. pH-dependent binding for hL49, cL235, CD228Ab1, CD228Ab2 and CD228Ab3, CD228Ab4 are shown in FIG. 34A-34F.
In general terms: In an ELISA, binding on a coated surface is turned into a signal by an enzyme label.

Test [8] deals with T2, human CD228 (R&D Systems Custom02; Lot …). The test can be described thus: ELISA on plate-coated human CD228, pH 5.9. As to the method:
as §2

Test [9] has the same target. The experiment in a line: ELISA on plate-coated human CD228, pH 6.3. The protocol:
as §2

Test [10] has the same target. The experiment in a line: ELISA on plate-coated human CD228, pH 7.1. As to the method: as §2
For test [11] the target is unchanged. The test can be described thus: ELISA on plate-coated human CD228, pH 7.4. The protocol: as §2
Test [12] has the same target. The experiment in a line: ELISA on plate-coated human CD228, pH 7.5. The protocol: as §2
The target is the same in test [13]. The experiment in a line: ELISA on plate-coated human CD228, pH 6.66. The protocol: as §2
Test [14] deals with T1, human CD228 on the cell surface …. The experiment in a line: saturation binding by flow cytometry on RPMI-7951 cells stably expressing human CD228; apparent KD. As to the method:
(§3) The KD for each resulting antibody was then determined by a saturation binding assay. Briefly, 1×10⁵ RPMI-7951 cells stably expressing human CD228 were aliquoted per well of a 96-well v-bottom plates. Each CD228 antibody was added in concentrations ranging from 0.05 pM to 340 nM and incubated on ice for 60 minutes. Cells were pelleted and washed 3× with PBS/BSA followed by addition of 10 ug/ml of a PE labeled anti-human IgG goat secondary antibody and incubated on ice for an additional 60 minutes. Cells were pelleted and washed 3× with PBS/BSA and resuspended in 125 μL of PBS/BSA. Fluorescence was analyzed by flow cytometry, using percent of saturated fluorescent signal to determine percent bound and to subsequently calculate apparent KD. The binding curves for recombinant human anti-CD228 antibodies are shown in FIG. 13 and the KD for cL49ec (chimeric LA9 with an S239C mutation in the […] constant region), hL49 HALA G1, hL49 HALB G1, and hL49 HALC G1 are shown in Table 8. The antibody called “HALC,” “hL49,” or “hL49-HALC” which comprises heavy chain “HA” and the light chain “LC” was selected for use in all other experiments.

Test [15] has the same target. The experiment in a line: saturation binding by flow cytometry, RPMI-7951 cells stably expressing human CD228; PE anti-human IgG secondary; row 'ug/mL' of the drawn table headed 'kD'. The protocol: as §3

B1: mouse antibody L49 (mL49), AlexaFluor-647 labeled parental murine CD228 mAb (antibody, mouse IgG1, V domains shown)
VH: EVQLQESGPSLVKPSQTLSLTCSVTGDSITSGYWNWIRKFPGNKLEYMGYISDSGITYYNPSLKSRISITRDTSKNQYYLQLNFVTAEDTATYNCARRTLATYYAMDYWGQGTSVTVSS
VL: DFVMTQTPLSLPVSLGDQASISCRASQSLVHSNGNTYLHWYLQKPGQSPKLLIYRVSNRFSGVPDRFSGSGSGTDFTLKISRVEAEDLGVYFCSQSTHVPPTFGGGTKLEIK
notes: also called Mu L49
In the case of B1, the “IC50 (read off the curve)” value in [1], in [2], in test [3], in test [4], in test [5] and in test [6] was 10 to 20 nM in each case.

B2: hL49 HALC G1 (antibody, human IgG1, kappa, V domains shown)
VH: QVQLQESGPGLVKPSETLSLTCTVSGDSITSGYWNWIRQPPGKGLEYIGYISDSGITYYNPSLKSRVTISRDTSKNQYSLKLSSVTAADTAVYYCARRTLATYYAMDYWGQGTLVTVSS
VL: DFVMTQSPLSLPVTLGQPASISCRASQSLVHSDGNTYLHWYQQRPGQSPRLLIYRVSNRFSGVPDRFSGSGSGTDFTLKISRVEAEDVGVYYCSQSTHVPPTFGQGTKLEIKT
notes: Humanized L49, IgG1 kappa
With B2, the EC50 in [7] was 21.8 nM; in test [8] it was 5.31 nM; in test [9] it was 2.96 nM; in [10] it was 1.1 nM; in test [11], 0.856 nM; in test [12], 1.18 nM. The molecule further yielded an EC50 in [13] of 1.54 nM. Further, the Kd came to 4 nM in test [14] and 0.6 µg/mL in [15].
